Molecular target: human delta-opioid receptor (human) (UniProt P41143)

Emax of ERK1/2 phosphorylation (% of SNC80 maximum, In-Cell Western) in CHO-K1-hDOPr cells, 5 min stimulation: 36 % SNC80
Substance: [D-Ala2, D-Leu5]-enkephalin (peptide)
